# In the supplement of paper PMC9112550, “Optimization of the antimicrobial peptide Bac7 by deep mutational scanning” (BMC Biology, 2022):
# System: Escherichia coli TOP10
# Test: shrunken log2 fold change of peptide-encoding DNA abundance (4.5 h post-induction vs induction); higher = less antimicrobial activity (less host growth inhibition)
# Conditions: time post-induction: 4.5 h; library: site-saturation at positions 5, 18, 19, 20
# 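Also: peptides expressed intracellularly from a pBAD plasmid library in pooled LB shake-flask culture, induced with 0.3% L-arabinose, DNA abundance read by NGS, three biological replicates, DESeq2 with apeglm shrinkage.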
row,Sequence,shrunken log2 fold change
1,RRIRKRPPRLPRPRPRPPIEPRP,0.223
2,RRIRKRPPRLPRPRPRPPIVPRP,-0.121
3,RRIRKRPPRLPRPRPRPPKAPRP,0.609
4,RRIRKRPPRLPRPRPRPPKFPRP,0.514
5,RRIRKRPPRLPRPRPRPPKNPRP,0.546
6,RRIRKRPPRLPRPRPRPPLKPRP,0.419
7,RRIRKRPPRLPRPRPRPPLLPRP,0.524
8,RRIRKRPPRLPRPRPRPPMGPRP,0.185
9,RRIRKRPPRLPRPRPRPPNDPRP,0.426
10,RRIRKRPPRLPRPRPRPPNGPRP,0.189
11,RRIRKRPPRLPRPRPRPPPLPRP,0.661
12,RRIRKRPPRLPRPRPRPPPRPRP,1.32
13,RRIRKRPPRLPRPRPRPPQSPRP,0.863
14,RRIRKRPPRLPRPRPRPPRAPRP,1.15
15,RRIRKRPPRLPRPRPRPPRWPRP,1.07
16,RRIRKRPPRLPRPRPRPPSMPRP,0.669
17,RRIRKRPPRLPRPRPRPPSPPRP,0.588
18,RRIRKRPPRLPRPRPRPPWLPRP,0.574
19,RRIRKRPPRLPRPRPRPPYQPRP,0.0608
20,RRIRKRPPRLPRPRPRPQAAPRP,0.451
21,RRIRKRPPRLPRPRPRPQAIPRP,-0.0244
22,RRIRKRPPRLPRPRPRPQANPRP,0.066

row,Sequence,shrunken log2 fold change
1,RRIRKRPPRLPRPRPRPQAVPRP,0.0562
2,RRIRKRPPRLPRPRPRPQCCPRP,-0.101
3,RRIRKRPPRLPRPRPRPQDAPRP,0.027
4,RRIRKRPPRLPRPRPRPQDIPRP,-0.116
5,RRIRKRPPRLPRPRPRPQFGPRP,0.0962
6,RRIRKRPPRLPRPRPRPQFKPRP,-0.037
7,RRIRKRPPRLPRPRPRPQGHPRP,0.0492
8,RRIRKRPPRLPRPRPRPQGNPRP,0.0216
9,RRIRKRPPRLPRPRPRPQHYPRP,-0.0715
10,RRIRKRPPRLPRPRPRPQICPRP,-0.0742
11,RRIRKRPPRLPRPRPRPQIYPRP,-0.159
12,RRIRKRPPRLPRPRPRPQKIPRP,-0.0746
13,RRIRKRPPRLPRPRPRPQKPPRP,0.00856
14,RRIRKRPPRLPRPRPRPQKQPRP,-0.0697
15,RRIRKRPPRLPRPRPRPQLCPRP,0.129
16,RRIRKRPPRLPRPRPRPQLDPRP,0.207
17,RRIRKRPPRLPRPRPRPQMQPRP,0.134
18,RRIRKRPPRLPRPRPRPQMTPRP,0.0443
19,RRIRKRPPRLPRPRPRPQNHPRP,2.37
20,RRIRKRPPRLPRPRPRPQNNPRP,-0.417
21,RRIRKRPPRLPRPRPRPQPDPRP,0.459
22,RRIRKRPPRLPRPRPRPQSCPRP,-0.0373

row,Sequence,shrunken log2 fold change
1,RRIRKRPPRLPRPRPRPQSYPRP,0.04
2,RRIRKRPPRLPRPRPRPQTDPRP,-0.00442
3,RRIRKRPPRLPRPRPRPQVCPRP,0.138
4,RRIRKRPPRLPRPRPRPQYCPRP,-0.0171
5,RRIRKRPPRLPRPRPRPRATPRP,1.17
6,RRIRKRPPRLPRPRPRPRAWPRP,0.389
7,RRIRKRPPRLPRPRPRPRCHPRP,0.237
8,RRIRKRPPRLPRPRPRPRFGPRP,0.217
9,RRIRKRPPRLPRPRPRPRGYPRP,0.166
10,RRIRKRPPRLPRPRPRPRIFPRP,-0.0494
11,RRIRKRPPRLPRPRPRPRKIPRP,0.968
12,RRIRKRPPRLPRPRPRPRLNPRP,0.489
13,RRIRKRPPRLPRPRPRPRMGPRP,0.149
14,RRIRKRPPRLPRPRPRPRNCPRP,0.0613
15,RRIRKRPPRLPRPRPRPRNQPRP,0.493
16,RRIRKRPPRLPRPRPRPRPWPRP,0.947
17,RRIRKRPPRLPRPRPRPRQEPRP,0.461
18,RRIRKRPPRLPRPRPRPRQRPRP,1.57
19,RRIRKRPPRLPRPRPRPRQSPRP,0.0892
20,RRIRKRPPRLPRPRPRPRRWPRP,0.717
21,RRIRKRPPRLPRPRPRPRWGPRP,0.358
22,RRIRKRPPRLPRPRPRPRYNPRP,-0.312

row,Sequence,shrunken log2 fold change
1,RRIRKRPPRLPRPRPRPRYSPRP,-0.705
2,RRIRKRPPRLPRPRPRPRYVPRP,0.0611
3,RRIRKRPPRLPRPRPRPSAEPRP,0.787
4,RRIRKRPPRLPRPRPRPSAGPRP,0.227
5,RRIRKRPPRLPRPRPRPSCIPRP,-0.0677
6,RRIRKRPPRLPRPRPRPSEEPRP,0.1
7,RRIRKRPPRLPRPRPRPSEKPRP,0.428
8,RRIRKRPPRLPRPRPRPSEMPRP,-0.17
9,RRIRKRPPRLPRPRPRPSFTPRP,-0.272
10,RRIRKRPPRLPRPRPRPSGSPRP,-0.0809
11,RRIRKRPPRLPRPRPRPSGTPRP,0.113
12,RRIRKRPPRLPRPRPRPSGWPRP,-0.146
13,RRIRKRPPRLPRPRPRPSHFPRP,0.355
14,RRIRKRPPRLPRPRPRPSHHPRP,0.02
15,RRIRKRPPRLPRPRPRPSHTPRP,-0.0409
16,RRIRKRPPRLPRPRPRPSIMPRP,-0.195
17,RRIRKRPPRLPRPRPRPSINPRP,0.0278
18,RRIRKRPPRLPRPRPRPSKSPRP,-0.141
19,RRIRKRPPRLPRPRPRPSMIPRP,-0.0957
20,RRIRKRPPRLPRPRPRPSMNPRP,-0.00473
21,RRIRKRPPRLPRPRPRPSNCPRP,-0.309
22,RRIRKRPPRLPRPRPRPSQPPRP,0.0235

row,Sequence,shrunken log2 fold change
1,RRIRKRPPRLPRPRPRPSQWPRP,0.144
2,RRIRKRPPRLPRPRPRPSREPRP,0.555
3,RRIRKRPPRLPRPRPRPSRLPRP,0.111
4,RRIRKRPPRLPRPRPRPSSPPRP,-0.563
5,RRIRKRPPRLPRPRPRPSSQPRP,0.0821
6,RRIRKRPPRLPRPRPRPSTFPRP,-0.00863
7,RRIRKRPPRLPRPRPRPSVCPRP,-0.0364
8,RRIRKRPPRLPRPRPRPSVPPRP,0.21
9,RRIRKRPPRLPRPRPRPTAPPRP,1.05
10,RRIRKRPPRLPRPRPRPTASPRP,0.783
11,RRIRKRPPRLPRPRPRPTCDPRP,-0.00872
12,RRIRKRPPRLPRPRPRPTDHPRP,0.375
13,RRIRKRPPRLPRPRPRPTEEPRP,2.12
14,RRIRKRPPRLPRPRPRPTEYPRP,0.0661
15,RRIRKRPPRLPRPRPRPTHMPRP,0.37
16,RRIRKRPPRLPRPRPRPTKIPRP,0.269
17,RRIRKRPPRLPRPRPRPTLLPRP,0.083
18,RRIRKRPPRLPRPRPRPTLWPRP,1.19
19,RRIRKRPPRLPRPRPRPTMHPRP,0.455
20,RRIRKRPPRLPRPRPRPTNTPRP,1.79
21,RRIRKRPPRLPRPRPRPTPEPRP,0.611
